The values that follow come from article PMC10620216.

This experiment concerns the target anti-StrepTagII pentameric IgM with J-chain. Kind of experiment: mass photometry; Refeyn OneMP, in PBS, measurement concentrations typically around 5–20 nM, recorded for 120 s; oligomeric state of the antibody in solution.

B1: anti-StrepTagII pentameric IgM with J-chain (antibody, V domains shown)
VH: EVQLEQSGPELVKPGASVKMSCKASGYTFTNYYMKWVKQSHGKSLEWIGDLNPNNGDTFYNQKFKGKATLTVDKSSNTAYMQLNSLTSEDSAVYYCARTGRYEENAMDYWGQGTSVTVSS
VL: ELVMTQSPASLAVSLGQRATISCRASESVDSYGKSFMHWYQLKPGQPPKLLIYRASNLESGVPARFSGSGSRTDFTLTIDPVEADDAATYYCQQNNEDPWTFGGGTKLEIK
As for B1, the percent (m/m) of IgM in pentameric configuration was 85 % (m/m) and the stoichiometry N came to 5.
